Measurements taken from US20230338524A1.

How the values were obtained:
[1] = target: soluble murine VEGFR2 (murine) (UniProt P35918); test: ELISA, OD450, panel 'mVEGFR2', antibody titrated (Log (M))
mouse VEGFR2 (mouse) = mouse VEGFR2 (mouse) (UniProt P35918); test: Blocking ELISA, panel 'mVEGF-mVEGFR2'; blocked ligand murine VEGF; antibody titrated (Log (M))
Chain of mouse VEGFR2 (mouse) (P35918 20-762 limits assumed): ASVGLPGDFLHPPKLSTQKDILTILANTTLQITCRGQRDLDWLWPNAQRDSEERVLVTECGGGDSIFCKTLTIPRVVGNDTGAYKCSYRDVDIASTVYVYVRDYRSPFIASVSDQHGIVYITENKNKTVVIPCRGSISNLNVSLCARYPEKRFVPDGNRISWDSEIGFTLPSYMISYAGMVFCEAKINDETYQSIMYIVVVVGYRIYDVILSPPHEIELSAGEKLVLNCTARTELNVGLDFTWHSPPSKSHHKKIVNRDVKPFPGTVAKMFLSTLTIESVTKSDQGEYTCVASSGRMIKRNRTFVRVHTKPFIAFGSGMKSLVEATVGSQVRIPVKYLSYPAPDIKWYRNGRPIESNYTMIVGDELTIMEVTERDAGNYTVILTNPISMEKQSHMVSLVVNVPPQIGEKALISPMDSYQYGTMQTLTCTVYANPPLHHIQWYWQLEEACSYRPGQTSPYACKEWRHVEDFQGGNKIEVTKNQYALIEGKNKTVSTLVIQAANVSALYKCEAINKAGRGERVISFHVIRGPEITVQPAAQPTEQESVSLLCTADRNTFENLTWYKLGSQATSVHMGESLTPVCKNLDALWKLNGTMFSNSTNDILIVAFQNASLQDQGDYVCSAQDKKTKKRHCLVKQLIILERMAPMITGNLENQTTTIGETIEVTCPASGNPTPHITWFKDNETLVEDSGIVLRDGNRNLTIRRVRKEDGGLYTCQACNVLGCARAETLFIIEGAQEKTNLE

Chain of soluble murine VEGFR2 (murine) (P35918 20-762 limits assumed): as above

- EC50 (read off the curve) [1]: 300 pM
- IC50 (read off the curve) (mouse VEGFR2 (mouse)): 500 pM
B1: DC101 (a murine monoclonal Ab that binds to murine VEGFR2) (antibody, from another filing, V domains shown)
VH: EVQLVETGGGLVQPGNSLKLSCATSGFIFSTTWMNWIRQTPGKRLEWLAQIEDKSNNYFISYSESVKGRFTISRDDSKSSVYLQMNNLKEEDTAIYYCSWKYRSNYYFDYWGQGVMVTVSS
VL: DIVLTQSPALAVSLEQRATISCKTSQNVDYYGISYLHWYQQKPGQQPKLLIYEGSNLASGIPARFSGSGSGTDFTLTIDPVEADDIVTYYCQQSKDYPYTFGAGTKLELKR
